Reference: paper PMC9482650, “Quantitative fragmentomics allow affinity mapping of interactomes” (Nature Communications, 2022)

T1: PCLO, Q9Y6V0
T1 sequence (Q9Y6V0 4491-4600, limits assumed, looked up): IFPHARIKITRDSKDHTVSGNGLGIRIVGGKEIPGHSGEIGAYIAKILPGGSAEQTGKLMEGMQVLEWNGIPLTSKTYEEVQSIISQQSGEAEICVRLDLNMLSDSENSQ

T2: APBA1_1, Q02410
T2 sequence (Q02410 651-752, limits assumed, looked up): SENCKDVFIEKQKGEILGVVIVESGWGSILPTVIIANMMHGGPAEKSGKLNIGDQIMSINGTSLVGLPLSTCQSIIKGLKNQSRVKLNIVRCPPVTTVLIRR

T3: TIAM2, Q8IVF5
T3 sequence (Q8IVF5 885-986, limits assumed, looked up): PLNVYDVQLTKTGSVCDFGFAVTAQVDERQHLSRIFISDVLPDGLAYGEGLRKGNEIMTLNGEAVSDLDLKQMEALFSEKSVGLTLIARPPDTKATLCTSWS

T4: NHERF3_1, Q5T2W1
T4 sequence (Q5T2W1 4-100, limits assumed, looked up): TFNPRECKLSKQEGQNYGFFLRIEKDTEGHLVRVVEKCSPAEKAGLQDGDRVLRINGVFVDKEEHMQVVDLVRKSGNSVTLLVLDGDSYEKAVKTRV

T5: GRIP1_7, Q9Y3R0
T5 sequence (Q9Y3R0 999-1096, limits assumed, looked up): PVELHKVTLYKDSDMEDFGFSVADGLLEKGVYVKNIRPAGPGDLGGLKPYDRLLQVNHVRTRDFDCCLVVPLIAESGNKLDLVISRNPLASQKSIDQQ

T6: MPDZ_10, O75970
T6 sequence (O75970 1624-1722, limits assumed, looked up): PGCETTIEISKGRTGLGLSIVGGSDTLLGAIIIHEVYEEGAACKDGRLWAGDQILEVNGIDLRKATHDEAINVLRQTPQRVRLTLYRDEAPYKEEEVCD

T7: GRIP1_3, Q9Y3R0
T7 sequence (Q9Y3R0 247-346, limits assumed, looked up): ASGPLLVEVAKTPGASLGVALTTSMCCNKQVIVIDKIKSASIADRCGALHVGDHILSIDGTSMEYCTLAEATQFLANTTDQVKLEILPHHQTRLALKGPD

T8: LIN7A, O14910
T8 sequence (O14910 103-200, limits assumed, looked up): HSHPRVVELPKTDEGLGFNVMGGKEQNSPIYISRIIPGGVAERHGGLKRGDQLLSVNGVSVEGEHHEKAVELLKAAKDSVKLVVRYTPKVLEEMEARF

T9: GRIP1_2, Q9Y3R0
T9 sequence (Q9Y3R0 145-248, limits assumed, looked up): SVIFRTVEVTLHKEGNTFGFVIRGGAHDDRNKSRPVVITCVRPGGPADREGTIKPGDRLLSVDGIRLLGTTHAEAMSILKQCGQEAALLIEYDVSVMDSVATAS

T10: RADIL, Q96JH8
T10 sequence (Q96JH8 971-1071, limits assumed, looked up): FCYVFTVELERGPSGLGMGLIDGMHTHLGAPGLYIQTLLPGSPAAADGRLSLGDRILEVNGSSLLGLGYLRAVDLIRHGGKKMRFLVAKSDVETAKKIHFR


molecular target: MAGI2_2, Q86UL8; assay: holdup assay; parameters: key: below the threshold = too weak to quantify, mostly under pKd 3.1 to 4; conditions: plain residues with an end cap or a label only (N-terminal biotin on a linker: ado-ado)
Sequence (Q86UL8 410-522): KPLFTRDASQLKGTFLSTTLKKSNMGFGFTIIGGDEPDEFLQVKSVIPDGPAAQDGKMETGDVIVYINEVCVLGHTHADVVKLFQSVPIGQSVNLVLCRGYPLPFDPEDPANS

Binder	pKd
RQKEVRESKC [SCN8A, Q9UQD0]	4.02
PYSESDDDWC [CACNA1A, O00555]	below the threshold

molecular target: LDB3, O75112; assay: holdup assay; parameters: key: below the threshold = too weak to quantify, mostly under pKd 3.1 to 4; conditions: plain residues with an end cap or a label only (N-terminal biotin on a linker: ado-ado)
Sequence (O75112 1-94): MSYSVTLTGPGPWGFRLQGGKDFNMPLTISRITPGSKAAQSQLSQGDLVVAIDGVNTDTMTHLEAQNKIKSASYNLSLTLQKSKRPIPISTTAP

Binder	pKd
RQKEVRESKC [SCN8A, Q9UQD0]	below the threshold
PYSESDDDWC [CACNA1A, O00555]	below the threshold

molecular target: GORASP2, Q9H8Y8; assay: holdup assay; parameters: key: below the threshold = too weak to quantify, mostly under pKd 3.1 to 4; conditions: plain residues with an end cap or a label only (N-terminal biotin on a linker: ado-ado)

Binder	pKd
RQKEVRESKC [SCN8A, Q9UQD0]	below the threshold
PYSESDDDWC [CACNA1A, O00555]	3.67

molecular target: AHNAK1, Q09666; assay: holdup assay; parameters: key: below the threshold = too weak to quantify, mostly under pKd 3.1 to 4; conditions: plain residues with an end cap or a label only (N-terminal biotin on a linker: ado-ado)
Sequence (Q09666 4-100): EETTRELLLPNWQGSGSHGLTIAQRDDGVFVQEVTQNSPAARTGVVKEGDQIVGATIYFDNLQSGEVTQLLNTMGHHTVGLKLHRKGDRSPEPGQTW

Binder	pKd
RQKEVRESKC [SCN8A, Q9UQD0]	below the threshold
PYSESDDDWC [CACNA1A, O00555]	below the threshold

molecular target: T1, PCLO, Q9Y6V0; assay: holdup assay; parameters: key: below the threshold = too weak to quantify, mostly under pKd 3.1 to 4; conditions: plain residues with an end cap or a label only (N-terminal biotin on a linker: ado-ado)

Binder	pKd
RQKEVRESKC [SCN8A, Q9UQD0]	below the threshold
PYSESDDDWC [CACNA1A, O00555]	below the threshold

molecular target: Inadl_1, Q8NI35; assay: holdup assay; parameters: key: below the threshold = too weak to quantify, mostly under pKd 3.1 to 4; conditions: plain residues with an end cap or a label only (N-terminal biotin on a linker: ado-ado)
Sequence (Q8NI35 113-229): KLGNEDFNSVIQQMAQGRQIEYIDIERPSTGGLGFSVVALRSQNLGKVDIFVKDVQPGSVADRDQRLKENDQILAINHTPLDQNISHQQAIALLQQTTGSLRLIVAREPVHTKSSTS

Binder	pKd
RQKEVRESKC [SCN8A, Q9UQD0]	below the threshold
PYSESDDDWC [CACNA1A, O00555]	below the threshold

molecular target: DLG2_2, Q15700; assay: holdup assay; parameters: key: below the threshold = too weak to quantify, mostly under pKd 3.1 to 4; conditions: plain residues with an end cap or a label only (N-terminal biotin on a linker: ado-ado)

Binder	pKd
RQKEVRESKC [SCN8A, Q9UQD0]	below the threshold
PYSESDDDWC [CACNA1A, O00555]	below the threshold

molecular target: T2, APBA1_1, Q02410; assay: holdup assay; parameters: key: below the threshold = too weak to quantify, mostly under pKd 3.1 to 4; conditions: plain residues with an end cap or a label only (N-terminal biotin on a linker: ado-ado)

Binder	pKd
RQKEVRESKC [SCN8A, Q9UQD0]	below the threshold
PYSESDDDWC [CACNA1A, O00555]	3.48

molecular target: T3, TIAM2, Q8IVF5; assay: holdup assay; parameters: key: below the threshold = too weak to quantify, mostly under pKd 3.1 to 4; conditions: plain residues with an end cap or a label only (N-terminal biotin on a linker: ado-ado)

Binder	pKd
RQKEVRESKC [SCN8A, Q9UQD0]	4.02
PYSESDDDWC [CACNA1A, O00555]	4.06

molecular target: SCRIB_3, Q14160; assay: holdup assay; parameters: key: below the threshold = too weak to quantify, mostly under pKd 3.1 to 4; conditions: plain residues with an end cap or a label only (N-terminal biotin on a linker: ado-ado)
Sequence (Q14160 999-1103): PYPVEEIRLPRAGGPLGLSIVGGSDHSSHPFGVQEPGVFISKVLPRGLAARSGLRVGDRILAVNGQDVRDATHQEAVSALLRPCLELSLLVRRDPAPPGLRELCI

Binder	pKd
RQKEVRESKC [SCN8A, Q9UQD0]	4.16
PYSESDDDWC [CACNA1A, O00555]	3.83

molecular target: GRID2IP_1, A4D2P6; assay: holdup assay; parameters: key: below the threshold = too weak to quantify, mostly under pKd 3.1 to 4; conditions: plain residues with an end cap or a label only (N-terminal biotin on a linker: ado-ado)
Sequence (A4D2P6 1-87): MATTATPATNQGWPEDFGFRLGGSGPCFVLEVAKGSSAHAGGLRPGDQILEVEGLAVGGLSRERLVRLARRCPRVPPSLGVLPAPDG

Binder	pKd
RQKEVRESKC [SCN8A, Q9UQD0]	below the threshold
PYSESDDDWC [CACNA1A, O00555]	below the threshold

molecular target: TJP1_3, Q07157; assay: holdup assay; parameters: key: below the threshold = too weak to quantify, mostly under pKd 3.1 to 4; conditions: plain residues with an end cap or a label only (N-terminal biotin on a linker: ado-ado)
Sequence (Q07157 416-512): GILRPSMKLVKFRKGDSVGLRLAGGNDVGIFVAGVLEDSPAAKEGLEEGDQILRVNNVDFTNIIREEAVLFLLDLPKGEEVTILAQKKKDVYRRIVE

Binder	pKd
RQKEVRESKC [SCN8A, Q9UQD0]	below the threshold
PYSESDDDWC [CACNA1A, O00555]	below the threshold

molecular target: T4, NHERF3_1, Q5T2W1; assay: holdup assay; parameters: key: below the threshold = too weak to quantify, mostly under pKd 3.1 to 4; conditions: plain residues with an end cap or a label only (N-terminal biotin on a linker: ado-ado)

Binder	pKd
RQKEVRESKC [SCN8A, Q9UQD0]	4.71
PYSESDDDWC [CACNA1A, O00555]	3.95

molecular target: T5, GRIP1_7, Q9Y3R0; assay: holdup assay; parameters: key: below the threshold = too weak to quantify, mostly under pKd 3.1 to 4; conditions: plain residues with an end cap or a label only (N-terminal biotin on a linker: ado-ado)

Binder	pKd
RQKEVRESKC [SCN8A, Q9UQD0]	below the threshold
PYSESDDDWC [CACNA1A, O00555]	below the threshold

molecular target: GOPC, Q9HD26; assay: holdup assay; parameters: key: below the threshold = too weak to quantify, mostly under pKd 3.1 to 4; conditions: plain residues with an end cap or a label only (N-terminal biotin on a linker: ado-ado)

Binder	pKd
RQKEVRESKC [SCN8A, Q9UQD0]	below the threshold
PYSESDDDWC [CACNA1A, O00555]	below the threshold

molecular target: DLG1_3, Q12959; assay: holdup assay; parameters: key: below the threshold = too weak to quantify, mostly under pKd 3.1 to 4; conditions: plain residues with an end cap or a label only (N-terminal biotin on a linker: ado-ado)

Binder	pKd
RQKEVRESKC [SCN8A, Q9UQD0]	4.13
PYSESDDDWC [CACNA1A, O00555]	below the threshold

molecular target: T6, MPDZ_10, O75970; assay: holdup assay; parameters: key: below the threshold = too weak to quantify, mostly under pKd 3.1 to 4; conditions: plain residues with an end cap or a label only (N-terminal biotin on a linker: ado-ado)

Binder	pKd
RQKEVRESKC [SCN8A, Q9UQD0]	3.8
PYSESDDDWC [CACNA1A, O00555]	below the threshold

molecular target: DLG2_3, Q15700; assay: holdup assay; parameters: key: below the threshold = too weak to quantify, mostly under pKd 3.1 to 4; conditions: plain residues with an end cap or a label only (N-terminal biotin on a linker: ado-ado)

Binder	pKd
RQKEVRESKC [SCN8A, Q9UQD0]	4.07
PYSESDDDWC [CACNA1A, O00555]	3.7

molecular target: TJP1_2, Q07157; assay: holdup assay; parameters: key: below the threshold = too weak to quantify, mostly under pKd 3.1 to 4; conditions: plain residues with an end cap or a label only (N-terminal biotin on a linker: ado-ado)
Sequence (Q07157 181-274): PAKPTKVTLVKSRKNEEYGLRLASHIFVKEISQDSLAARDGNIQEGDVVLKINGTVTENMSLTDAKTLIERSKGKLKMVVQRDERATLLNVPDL

Binder	pKd
RQKEVRESKC [SCN8A, Q9UQD0]	below the threshold
PYSESDDDWC [CACNA1A, O00555]	below the threshold

molecular target: T7, GRIP1_3, Q9Y3R0; assay: holdup assay; parameters: key: below the threshold = too weak to quantify, mostly under pKd 3.1 to 4; conditions: plain residues with an end cap or a label only (N-terminal biotin on a linker: ado-ado)

Binder	pKd
RQKEVRESKC [SCN8A, Q9UQD0]	below the threshold
PYSESDDDWC [CACNA1A, O00555]	below the threshold

molecular target: MAGI2_3, Q86UL8; assay: holdup assay; parameters: key: below the threshold = too weak to quantify, mostly under pKd 3.1 to 4; conditions: plain residues with an end cap or a label only (N-terminal biotin on a linker: ado-ado)
Sequence (Q86UL8 600-682): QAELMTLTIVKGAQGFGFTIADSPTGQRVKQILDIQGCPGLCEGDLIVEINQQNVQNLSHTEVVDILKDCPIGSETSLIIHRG

Binder	pKd
RQKEVRESKC [SCN8A, Q9UQD0]	3.51
PYSESDDDWC [CACNA1A, O00555]	below the threshold

molecular target: T8, LIN7A, O14910; assay: holdup assay; parameters: key: below the threshold = too weak to quantify, mostly under pKd 3.1 to 4; conditions: plain residues with an end cap or a label only (N-terminal biotin on a linker: ado-ado)

Binder	pKd
RQKEVRESKC [SCN8A, Q9UQD0]	below the threshold
PYSESDDDWC [CACNA1A, O00555]	below the threshold

molecular target: GRIP2_7, Q9C0E4; assay: holdup assay; parameters: key: below the threshold = too weak to quantify, mostly under pKd 3.1 to 4; conditions: plain residues with an end cap or a label only (N-terminal biotin on a linker: ado-ado)
Sequence (Q9C0E4 934-1023): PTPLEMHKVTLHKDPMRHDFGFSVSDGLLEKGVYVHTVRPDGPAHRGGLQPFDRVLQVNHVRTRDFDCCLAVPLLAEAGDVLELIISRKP

Binder	pKd
RQKEVRESKC [SCN8A, Q9UQD0]	below the threshold
PYSESDDDWC [CACNA1A, O00555]	below the threshold

molecular target: DLG1_1, Q12959; assay: holdup assay; parameters: key: below the threshold = too weak to quantify, mostly under pKd 3.1 to 4; conditions: plain residues with an end cap or a label only (N-terminal biotin on a linker: ado-ado)

Binder	pKd
RQKEVRESKC [SCN8A, Q9UQD0]	below the threshold
PYSESDDDWC [CACNA1A, O00555]	below the threshold

molecular target: NHERF4_4, Q86UT5; assay: holdup assay; parameters: key: below the threshold = too weak to quantify, mostly under pKd 3.1 to 4; conditions: plain residues with an end cap or a label only (N-terminal biotin on a linker: ado-ado)
Sequence (Q86UT5 464-550): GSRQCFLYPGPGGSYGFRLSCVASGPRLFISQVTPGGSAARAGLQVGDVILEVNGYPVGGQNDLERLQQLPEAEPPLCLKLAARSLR

Binder	pKd
RQKEVRESKC [SCN8A, Q9UQD0]	below the threshold
PYSESDDDWC [CACNA1A, O00555]	below the threshold

molecular target: T9, GRIP1_2, Q9Y3R0; assay: holdup assay; parameters: key: below the threshold = too weak to quantify, mostly under pKd 3.1 to 4; conditions: plain residues with an end cap or a label only (N-terminal biotin on a linker: ado-ado)

Binder	pKd
RQKEVRESKC [SCN8A, Q9UQD0]	below the threshold
PYSESDDDWC [CACNA1A, O00555]	3.62

molecular target: GIPC2, Q8TF65; assay: holdup assay; parameters: key: below the threshold = too weak to quantify, mostly under pKd 3.1 to 4; conditions: plain residues with an end cap or a label only (N-terminal biotin on a linker: ado-ado)
Sequence (Q8TF65 112-203): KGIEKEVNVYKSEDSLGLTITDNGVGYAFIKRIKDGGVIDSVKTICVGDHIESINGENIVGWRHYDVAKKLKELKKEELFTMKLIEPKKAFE

Binder	pKd
RQKEVRESKC [SCN8A, Q9UQD0]	4.05
PYSESDDDWC [CACNA1A, O00555]	below the threshold

molecular target: T10, RADIL, Q96JH8; assay: holdup assay; parameters: key: below the threshold = too weak to quantify, mostly under pKd 3.1 to 4; conditions: plain residues with an end cap or a label only (N-terminal biotin on a linker: ado-ado)

Binder	pKd
RQKEVRESKC [SCN8A, Q9UQD0]	below the threshold
PYSESDDDWC [CACNA1A, O00555]	below the threshold
